Where two headings read alike, the source gives them in different places.
Assays:
[1] = biological target: T1, S. pneumoniae GAPN (Streptococcus pneumoniae, UniProt A0A0H2ZNN4); assay: UV kinetics at […] nm, varied G3P with fixed E4P ([…]); type: biochemical
T1 construct: N-terminal 6xHis tag, pET21b (NdeI), E. coli BL21(DE3); tag removal not mentioned; homotetramer; catalytic C283

[2] = tested on: O=C[C@H](O)COP(=O)(O)O; assay: purified protein; settings: pH 7.5, 25°C, 1.0 mM NADP+, 40 nM GAPN
[3] = tested on: NC(=O)c1ccc[n+]([C@@H]2O[C@H](COP(=O)(O)OP(=O)(O)OC[C@H]3O[C@@H](n4cnc5c(N)ncnc54)[C@H](OP(=O)(O)O)[C@@H]3O)[C@@H](O)[C@H]2O)c1; assay: purified protein; settings: pH 7.5, 25°C, 1.0 mM G3P, 40 nM GAPN, varied: cofactor
[4] = tested on: NC(=O)c1ccc[n+]([C@@H]2O[C@H](COP(=O)(O)OP(=O)(O)OC[C@H]3O[C@@H](n4cnc5c(N)ncnc54)[C@H](O)[C@@H]3O)[C@@H](O)[C@H]2O)c1; assay: purified protein; settings: pH 8.5, 25°C, 1.0 mM G3P (Figure 2 legend says 500 μM), 20 μM GAPN, varied: cofactor
[5] = biological target: T1, S. pneumoniae GAPN; assay: isothermal titration calorimetry; type: binding
[6] = biological target: the molecule itself; assay: cryo-EM structure; purified GAPN at 90 uM in 50 mM HEPES pH 7.5, 50 mM NaCl, 2 mM DTT; alone (apo), with 1 mM NADP+ (holo) or with 1 mM G3P; single particle reconstruction

For `O=C[C@H](O)[C@H](O)COP(=O)(O)O` [E4P], the Ki [1] was 25.7 ± 7.2 µM.

Molecule “S. pneumoniae GAPN (Streptococcus pneumoniae D39)” has a Km [2] of 88 ± 17 µM, a Vmax [2] of 580 ± 30 nM/s and a kcat [2] of 14.5 ± 0.7 s⁻¹. The Km [3] was 119 ± 12 µM, the Vmax [3] was 570 ± 20 nM/s and the kcat [3] was 14.2 ± 0.6 s⁻¹. The Km [4] was 7200 ± 2000 µM and the kcat [4] was 0.4 ± 0.1 s⁻¹.

`NC(=O)c1ccc[n+]([C@@H]2O[C@H](COP(=O)(O)OP(=O)(O)OC[C@H]3O[C@@H](n4cnc5c(N)ncnc54)[C@H](OP(=O)(O)O)[C@@H]3O)[C@@H](O)[C@H]2O)c1` [NADP^+] showed a Kd [5] of 51 ± 32 µM.

`O=C[C@H](O)COP(=O)(O)O` [G3P] gave a Kd ([5]; read-out: K D) of 0.053 ± 0.036 µM.

B1: Streptococcus pneumoniae GAPN (non-phosphorylating glyceraldehyde-3-phosphate dehydrogenase) (enzyme, S. pneumoniae strain D39)
chain: MTRYQNLVNGKWKSSEQEITIYSPINQEELGTVPAMTQTEADEAMQAARAALPAWRALSAIERAAYLHKTAAILERDKEKIGTILAKEVAKGIKAAIGEVVRTADLIRYAAEEGLRITGQAMEGGGFEAASKNKLAVVRREPVGIVLAIAPFNYPVNLSASKIAPALIAGNVVMLKPPTQGSISGLLLAKAFEEAGIPAGVFNTITGRGSEIGDYIIEHKEVNFINFTGSTPIGERIGRLAGMRPIMLELGGKDAALVLEDADLEHAAKQIVAGAFSYSGQRCTAIKRVIVLESVADKLATLLQEEVSKLTVGDPFDNADITPVIDNASADFIWGLIEDAQEKEAQALTPIKREGNLLWPVLFDQVTKDMKVAWEEPFGPVLPIIRVASVEEAIAFANESEFGLQSSVFTNDFKKAFEIAEKLEVGTVHINNKTQRGPDNFPFLGVKGSGAGVQGIKYSIEAMTNVKSIVFDVK
notes: GAPN, non-phosphorylating glyceraldehyde-3-phosphate dehydrogenase of S. pneumoniae strain D39; gapn gene PCR amplified from genomic DNA; UniProt A0A0H2ZNN4_STRP2; The gene was inserted with an N-terminal 6xHis tag into NdeI-cleaved pET21b; Homotetramer in the cryo-EM structures
B1 was tested, and the “stoichiometry N” value [6] was 4.
